Source: the Human Domainome abundance scans (Beltran et al. 2025)
± gives the uncertainty stated by the source.

B1: Membrane-associated guanylate kinase, WW and PDZ domain-containing protein 2, residues 601 to 682; numbered along this chain, Q86UL8 (parent)
chain: AELMTLTIVKGAQGFGFTIADSPTGQRVKQILDIQGCPGLCEGDLIVEINQQNVQNLSHTEVVDILKDCPIGSETSLIIHRG

Variants of: B1
Assay: abundance fitness (aPCA) (normalised: wild type 0, dead -1); higher = more abundant; growth selection in yeast, the domain comes from the species named
Conditions: Homo sapiens
V63Q gave an abundance fitness of -0.087 ± 0.23. Variant V63M has an abundance fitness of 0.041 ± 0.11. V63R showed an abundance fitness of -0.072 ± 0.068. For V63L, the abundance fitness was -0.278 ± 0.2. V63K showed an abundance fitness of -0.095 ± 0.21. V63S gave an abundance fitness of -0.099 ± 0.13. With V63W the abundance fitness was -0.017 ± 0.11. In the case of C69L, the abundance fitness is reported as -0.064 ± 0.11. For C69G, the abundance fitness was -0.059 ± 0.061. C69P showed an abundance fitness of -0.421 ± 0.22. C69M showed an abundance fitness of -0.102 ± 0.12. With C69T the abundance fitness was 0.085 ± 0.11. With C69D the abundance fitness was -0.27 ± 0.13. C69H showed an abundance fitness of -0.329 ± 0.2. For C69N, the abundance fitness was -0.195 ± 0.16. In the case of C69R, the abundance fitness is reported as -0.08 ± 0.08. C69E gave an abundance fitness of -0.086 ± 0.094. Variant C69K has an abundance fitness of 0.108 ± 0.14. Variant C69Q has an abundance fitness of -0.125 ± 0.13. In the case of C69W, the abundance fitness is reported as -0.25 ± 0.11. Work on C69S yielded an abundance fitness of 0.177 ± 0.18. For C69V, the abundance fitness was -0.03 ± 0.065. C69A gave an abundance fitness of -0.029 ± 0.07. C69Y showed an abundance fitness of -0.174 ± 0.12. Variant I71Q has an abundance fitness of -0.161 ± 0.096. Variant I71C has an abundance fitness of -0.101 ± 0.23. With I71A the abundance fitness was -0.165 ± 0.1. I71R showed an abundance fitness of -0.082 ± 0.076. For I71D, the abundance fitness was -0.101 ± 0.17. I71M showed an abundance fitness of -0.004 ± 0.099. With I71L the abundance fitness was -0.099 ± 0.1. I71G showed an abundance fitness of 0.038 ± 0.074. With I71T the abundance fitness was -0.038 ± 0.15. Variant I71K has an abundance fitness of -0.117 ± 0.24. For I71F, the abundance fitness was -0.004 ± 0.21. I71V showed an abundance fitness of 0.006 ± 0.089. I71H showed an abundance fitness of -0.18 ± 0.23. In the case of I71E, the abundance fitness is reported as -0.033 ± 0.11. I71P showed an abundance fitness of -0.052 ± 0.11. P70S showed an abundance fitness of -0.001 ± 0.12. With P70F the abundance fitness was -0.074 ± 0.12. P70H showed an abundance fitness of -0.107 ± 0.11. With P70Q the abundance fitness was -0.084 ± 0.13. Variant P70K has an abundance fitness of -0.056 ± 0.24. P70R showed an abundance fitness of -0.003 ± 0.067. Work on P70N yielded an abundance fitness of -0.089 ± 0.23. P70A gave an abundance fitness of -0.227 ± 0.099. For P70W, the abundance fitness was -0.087 ± 0.12. With P70T the abundance fitness was -0.108 ± 0.12. P70C gave an abundance fitness of -0.315 ± 0.19. In the case of P70E, the abundance fitness is reported as 0.007 ± 0.082. With P70G the abundance fitness was -0.185 ± 0.076. Work on P70L yielded an abundance fitness of -0.085 ± 0.11. Work on P70D yielded an abundance fitness of 0.077 ± 0.29. P70M showed an abundance fitness of -0.098 ± 0.12. L66Y showed an abundance fitness of -0.736 ± 0.45. Variant L66W has an abundance fitness of -0.521 ± 0.12. L66E showed an abundance fitness of -0.522 ± 0.33. L66V showed an abundance fitness of -0.235 ± 0.13. L66G gave an abundance fitness of -0.673 ± 0.28. For L66A, the abundance fitness was -0.571 ± 0.12. With L66R the abundance fitness was -1.11 ± 0.24. L66C showed an abundance fitness of -0.398 ± 0.15. L66F showed an abundance fitness of 0.053 ± 0.18. In the case of L66S, the abundance fitness is reported as -0.63 ± 0.2. Variant L66T has an abundance fitness of -0.589 ± 0.47. L66Q showed an abundance fitness of -0.557 ± 0.31. In the case of D64T, the abundance fitness is reported as -0.126 ± 0.12. For D64G, the abundance fitness was -0.059 ± 0.071. With D64N the abundance fitness was -0.067 ± 0.3. Variant D64Y has an abundance fitness of 0.08 ± 0.19. With D64V the abundance fitness was -0.06 ± 0.063. Work on D64F yielded an abundance fitness of -0.112 ± 0.2. D64M gave an abundance fitness of -0.308 ± 0.14. For D64A, the abundance fitness was -0.191 ± 0.09. With D64I the abundance fitness was -0.183 ± 0.18. Work on D64S yielded an abundance fitness of 0.013 ± 0.085. D64Q gave an abundance fitness of -0.057 ± 0.11. In the case of D64C, the abundance fitness is reported as -0.238 ± 0.18. D64H showed an abundance fitness of 0.195 ± 0.3. In the case of D64L, the abundance fitness is reported as -0.128 ± 0.087. Variant D64P has an abundance fitness of -0.202 ± 0.2. Variant D64K has an abundance fitness of 0.011 ± 0.16.
